This note sets out measurements from patent publication US10866245B2, “Methods for dye selection for protein melt temperature determinations” (LIFE TECHNOLOGIES CORPORATION, priority 2013, dated 2020).

One data set has as its target T1, T4 DNA ligase (Enterobacteria phage T4, UniProt P00970).
T1 sequence (P00970 1-487): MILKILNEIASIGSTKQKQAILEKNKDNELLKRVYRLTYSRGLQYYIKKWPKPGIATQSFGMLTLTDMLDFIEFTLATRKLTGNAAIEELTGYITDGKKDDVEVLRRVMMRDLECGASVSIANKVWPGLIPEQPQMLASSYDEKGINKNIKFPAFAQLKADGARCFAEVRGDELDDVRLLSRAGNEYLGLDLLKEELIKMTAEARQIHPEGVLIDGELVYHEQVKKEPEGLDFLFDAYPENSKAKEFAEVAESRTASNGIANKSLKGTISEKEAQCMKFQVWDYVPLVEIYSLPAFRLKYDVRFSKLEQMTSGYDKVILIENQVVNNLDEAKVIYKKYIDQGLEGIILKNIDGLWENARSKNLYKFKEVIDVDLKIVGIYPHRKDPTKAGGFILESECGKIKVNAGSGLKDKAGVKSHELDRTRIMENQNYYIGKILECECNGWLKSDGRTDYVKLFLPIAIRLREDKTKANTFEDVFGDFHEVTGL
Kind of data set: Protein Thermal Shift assay of T4 DNA ligase with and without ligand ATP (SYPRO Orange). In kind it is binding. The settings on record: derivative curve FIG. 2B. Here is the method: (§1) Applied Biosystems® Real-time PCR Systems instruments, as described above, are used to plot the fluorescence data throughout the thermal melt, generating a fluorescence profile specific to the protein of interest within the test buffer environment or in the presence of a test ligand. A MATLAB based TmTool™ which utilizes the Boltzmann equation to calculate the Tm of the protein from the fluorescence melt plot is used to process the raw data recorded with the instrument.
T4 DNA ligase is prepared in phosphate buffered saline (PBS; 137 mM NaCl, 10 mM Phosphate, 2.7 mM KCl, pH 7.4) and 5% glycerol at a concentration of 3 mg/ml of protein. T4 DNA ligase samples are prepared using SYPRO® Orange with and without ligand (ATP at 10 mM concentration). SYPRO® Orange dye solution is prepared as a 1000× stock from a 5000× stock solution in DMSO, then diluted to a 10× stock solution using 100 mM Potassium phosphate buffer. The SYPRO® Orange-protein reaction mixture is prepared by using 1 μl of the protein solution, 2 μl of the 10× dye solution, and 17 μl of the PTS buffer. Quadruplicate samples for each protein-dye mixture are run on a ViiA™ 7 qPCR instrument (Life Technologies, Inc.) and analysis using Protein Thermal Shift™ software (Life Technologies Inc.). […]

Data set [1] in a line: Protein Thermal Shift buffer and salt screen of RecA (SYPRO Orange, Boltzmann fit). It is filed as physicochemical.
Description: as §1
FIGS. 3A through 3C illustrate the method of calculating Tm from a typical PTS. The MATLAB based TmTool™ calculates the Tm of the protein from the shape of the fluorescence plot in FIG. 3a. The thermo-stability of RecA in different buffer and salt conditions is compared and the region of interest is fitted to the Boltzmann equation. RecA is prepared in phosphate buffered saline (PBS; 137 mM NaCl, 10 mM Phosphate, 2.7 mM KCl, pH 7.4) and 5% glycerol at a concentration of 3 mg/ml of protein. SYPRO® Orange dye solution is prepared as a 1000× stock from a 5000× stock solution in DMSO, then diluted to a 10× stock solution with PTS buffer.
The SYPRO® Orange-protein Protein Thermal Shift Assay reaction mixture is prepared by using 1 μl of the protein solution, 2 μl of the 10× dye solution, and 17 μl of each of experimental buffer solutions A1-A4, B1-B4, C1-C4, and D1-D4. Samples for each protein-dye mixture are run on a ViiA™ 7 qPCR instrument (Life Technologies, Inc.) and analysis using Protein Thermal Shift™ software (Life Technologies Inc.). The run time conditions are: a temperature hold at 20° C. for one minute followed by a thermal ramp of 0.05° C. with continuous data collection to 95° C., followed by a 1 minute hold at the final temperature.
The Applied Biosystems' TmTool™ calculator provides the protein Tm calculated via Boltzmann curve-fitting. […] Thus, the methods can be used to identify salt and pH concentrations best suited for stability of a protein as well as conditions for protein storage, crystallography, etc. The Boltzmann equation used is: […]

Data set [2] is described as follows: Protein Thermal Shift of RecA with dye formulation 7 versus SYPRO Orange alone. In kind it is physicochemical. Here is the method: The assays are run on a ViiA™7 qPCR instrument (Life Technologies, Inc.) and analyzed using Protein Thermal Shift™ software (Life Technologies Inc.). The run time conditions are: a temperature hold at 20° C. for one minute followed by a thermal ramp of 0.05° C. with continuous data collection to 95° C., followed by a 1 minute hold at the final temperature.
PTS is performed on RecA, using conditions as is discussed in Example 6. 1.4 μl of each of the 100× dye formulations is added according to Table 9. PTS reproducibility is improved with dye formulation 7 (SYPRO® Orange, SYPRO® Red and SYPRO® Tangerine) (FIGS. 13A and 13B) using an X5-M5 filter relative to SYPRO® Orange alone using an X4-M4 filter. In FIG. 13A, using the mixture of dyes (formulation 7), the two melt curves shown are for RecA in E3 and C3 buffer, respectively.

The target in another data set is T2, Human Decorin Protein (Homo sapiens, UniProt P07585).
T2 construct: purchased R&D Systems 143-DE
Kind of data set: Protein Thermal Shift of human Decorin, anti-Decorin antibody and their mixture. Particulars: isolated protein or isolated antibody. In kind it is binding. On the procedure: T4 DNA ligase is prepared in phosphate buffered saline (PBS; 137 mM NaCl, 10 mM Phosphate, 2.7 mM KCl, pH 7.4) and 5% glycerol at a concentration of 3 mg/ml of protein. T4 DNA ligase samples are prepared using SYPRO® Orange with and without ligand (ATP at 10 mM concentration). SYPRO® Orange dye solution is prepared as a 1000× stock from a 5000× stock solution in DMSO, then diluted to a 10× stock solution using 100 mM Potassium phosphate buffer. The SYPRO® Orange-protein reaction mixture is prepared by using 1 μl of the protein solution, 2 μl of the 10× dye solution, and 17 μl of the PTS buffer. Quadruplicate samples for each protein-dye mixture are run on a ViiA™ 7 qPCR instrument (Life Technologies, Inc.) and analysis using Protein Thermal Shift™ software (Life Technologies Inc.). The run time conditions are: a temperature hold at 20° C. for one minute followed by a thermal ramp of 0.05° C. with continuous data collection to 95° C., followed by a 1 minute hold at the final temperature.
An assay was performed to identify whether PTS can be used to analyze binding of an antibody to its ligand. The method is performed using buffer and reaction conditions as described in EXAMPLE 1.

On to `Nc1ncnc2c1ncn2[C@@H]1O[C@H](COP(=O)(O)OP(=O)(O)OP(=O)(O)O)[C@@H](O)[C@H]1O` [ATP, reference compound], for which the “Tm of complexed T4 DNA Ligase” value at T4 DNA ligase (with ligand ATP at 10 mM) is “about 48 °C”.
As a reminder, the Tm is the temperature at the midpoint of the melting transition. Take RecA: RecA DNA repair protein: the “Tm in ° C.” value in data set [1] (Buffer A1: 100 mM Sodium Citrate, pH 5.5, 0 mM NaCl) is 42.2 °C; in data set [1] (Buffer A2: 100 mM Sodium Citrate, pH 5.5, 50 mM NaCl) it was 41.7 °C; in data set [1] (Buffer A3: 100 mM Sodium Citrate, pH 5.5, 100 mM NaCl) it was 42.1 °C; in data set [1] (Buffer A4: 100 mM Sodium Citrate, pH 5.5, 150 mM NaCl), 41.6 °C; in data set [1] (Buffer B1: 100 mM Potassium Phosphate, pH 6.0, 0 mM NaCl), 41.8 °C; in data set [1] (Buffer B2: 100 mM Potassium Phosphate, pH 6.0, 50 mM NaCl), 41.2 °C. Also, the “Tm in ° C.” value was found to be 41.2 °C in data set [1] (Buffer B3: 100 mM Potassium Phosphate, pH 6.0, 100 mM NaCl); 41.1 °C in data set [1] (Buffer B4: 100 mM Potassium Phosphate, pH 6.0, 150 mM NaCl); 46.8 °C in data set [1] (Buffer C1: 100 mM Potassium Phosphate, pH 7.0, 0 mM NaCl); 46.6 °C in data set [1] (Buffer C2: 100 mM Potassium Phosphate, pH 7.0, 50 mM NaCl); 46 °C in data set [1] (Buffer C3: 100 mM Potassium Phosphate, pH 7.0, 100 mM NaCl); 45.7 °C in data set [1] (Buffer C4: 100 mM Potassium Phosphate, pH 7.0, 150 mM NaCl). Further, the Tm in data set [2] (Buffer C3, SYPRO Orange alone, X4-M4 filter) came out at 53.3 °C; in data set [2] (Buffer C3, dye formulation 7, X5-M5 filter), 49.5 °C; in data set [2] (Buffer E3, SYPRO Orange alone, X4-M4 filter) it was 48.1 °C; in data set [2] (Buffer E3, dye formulation 7, X5-M5 filter), 45.7 °C.

B1: Human Decorin: Human Decorin Protein, P/N 143-DE (R&D Systems) (protein, UniProt P07585 31-359, looked up)
Decorin: DEASGIGPEVPDDRDFEPSLGPVCPFRCQCHLRVVQCSDLGLDKVPKDLPPDTTLLDLQNNKITEIKDGDFKNLKNLHALILVNNKISKVSPGAFTPLVKLERLYLSKNQLKELPEKMPKTLQELRAHENEITKVRKVTFNGLNQMIVIELGTNPLKSSGIENGAFQGMKKLSYIRIADTNITSIPQGLPPSLTELHLDGNKISRVDAASLKGLNNLAKLGLSFNSISAVDNGSLANTPHLRELHLDNNKLTRVPGGLAEHKYIQVVYLHNNNISVVGSSDFCPPGHNTKKASYSGVSLFSNPVQYWEIQPSTFRCVYVRSAIQLGNYK
As for B1, the Tm in the data set with Human Decorin Protein was determined as 47.7 °C.

B2: T4 DNA Ligase: T4 DNA ligase enzyme prepared in PBS and 5% glycerol at 3 mg/ml (protein, UniProt P00970 1-487, looked up)
DNA ligase: T1 sequence (P00970 1-487)
In the case of B2, the “Tm of uncomplexed T4 DNA Ligase” value in the data set with T4 DNA ligase (no ligand) was “about 42 °C”.
